US20070295907A1

Target: GFP-TIpA fusion protein (Salmonella typhimurium) [GFP: P42212]
Test: cell-based or functional assay

GFP-TIpA fusion protein (from UniProt P42212 1-238)
fluorescent intensity when excited at 395 nm, temperature raised from 10° C. to 55° C.: 30%
